B1: StrepII-tagged Gallus gallus FANCD2 (expressed alone) (natural protein, UniProt Q68Y81 1-1439, looked up)
chain: MVSKRKLSKIDAAEESSKTDLQSRCPETKRSRISDKRAPSQGGLENEGVFEELLRTSGIILKVGEGQNEIAVDQTAFQKKLRVALEKHPSYPGVVNEFISGLESHIKDRSQFKNCLLPCTPARTEGSRTLVHSYCESLIKLLLGIKILQPAVVTLLLEKIPEFFFDVVGTFGTNFPRLIVNQFKWLDGLLDSQDLVKKLMQMLSVSPVPIQHDIITSLPEILEDSQQNEVARELSCLLKQGRRLTVPILDALSRLDLDAELLAEVRQSAMTIVPSVKLEDLPVVIKFILHNVKAADAVEVISDLRKSLDLSSCVLPLQLLGSQRKLKSQAQASSSMSQVTTSQNCVKLLFDVIKQAVRFQKDVSEAWIKAIENSTSVSDHKVLDLIVLLLIHSTNSKNRKQTEKVLRSKIRLGCMPEQLMQNAFQNHSMVIKDFFPSILSLAQTFLHSAHPAVVSFGSCMYKQAFAVFDSYCQQEVVCALVTHVCSGNETELDISLDVLTDLVILHPSLLLRYATFVKTILDSMQKLNPCQIRKLFYILSTLAFSQRQEGSYIQDDMHMVIRKWLSSSVPNHKQMGIIGAVTMMGSVALKRNEADGGLLERPELSIECDGQLSTLLDLVGFCCEQTPEVLALYYDELANLIEKQKGNLDLQLLDKFGKSLVEDFPNDFVVDLSPTVDGSFLFPVKSLYNLDEDETQGAIAINLLPLVSQSEPGRVADEMSNSRKRVVSPICLSPCFRLLRLYTGEQNNGSLEEIDALLGCPLYLTDLEVEGKLDSLSKQEREFLCSLLFYALNWFREVVNAFCQQQDAEMKGKVLTRLQNITELQNVLGKCLAATPGYVPPPATFDSEAPEGVPSINAGGPVRKKNGKKRKSDSSKACSAERTQADESSDGNQPDTELSELEKSATEKETGNPLAQLQSYRPYFRELDLEVFSVLHCGLLTKSILDTEMHTEASEVVQLGPAELCFLLDDMCWKLEHVLTPGSTRRVPFLKERGNKDVGFSHLCQRSPKEVAVCVVKLLKPLCNHMENMHNYFQTVIPNQGVVDESGLNIQEYQLMSSCYHQLLLAFRLLFAWSGFSQHENSNLLRSALQVLADRLKPGETEFLPLEELISESFQYLLNFQASIPSFQCAFILTQVLMAISEKPMTGWKREKMASLAKQFLCQSWMKPGGDREKGSHFNSALHTLLCVYLEHTDNILKAIEEISSVGVPELINSAKDGCSSTYPTLSRQTFPVFFRVMMAQLESSVKSIPAGKPSDSGEVQLEKLLKWNIAVRNFHILINLVKVFDSRPVLSICLKYGRLFVEAFLKLAMPLLDHSFKKHRDDVQSLLKTLQLSTRQLHHMCGHSKIHQDLGLTNHVPLLKKSLEQFVYRVKAMLAFNHCQEAFWVGVLKNRDLQGEEILSQASAAPEEDSAEGSEEDTADSAAEEPDGTDSDSGGAGR
notes: FANCD2, Gallus gallus, full length cDNA synthesized (GeneArt); C-terminal extension with a 3C protease site before the double StrepII tag; no cleavage is described; also called FANCD2 homodimer; D2-D2; source: Sf9, purified (Strep-Tactin, heparin, Superdex 200); not shown: double StrepII, C-terminal, kept
B2: His-tagged Gallus gallus FANCI (expressed alone) (natural protein, UniProt B0I564 1-1338, looked up)
chain: MAQRILQLAAEGSPERLQEALQGLTEGELGDMVTRQALRGRETAALLKGIFKGSPCSQQSGVLRRLQVYKHCVSLVESGDLHVGKVSEIIGLLMLEARQLPGHALAELATLFVEVIKRGSLSNGKSLELFSTVLTALSNSKESLAYGKGELNGEEFKKQLINTLCSSKWDPQCVIHLANMFRDIPLSGEELQFVVEKVLRMFSKLDLQEIPPLVYQLLLLSAKGSKKTVLEGIISFFNQLDKRQKEEQRVPQSADLEVATVPLDQLRHVEGTVILHIVSAINLDQDIGEELIKHLKTEQQKDPGKALCPFSVSLLLSTAVKHRLQEQIFDFLKTSITRSCKDLQILQASKFLQDLCPQQYDVTAVILEVVKNSAFGWDHVTQGLVDLGFSLMESYEPKKSFGGKAAETNLGLSKMPAQQACKLGASILLETFKVHEPIRSDILEQVLNRVLTKAASPVSHFIDLLSNIVVSAPLVLQNSSSRVTETFDNLSFLPIDTVQGLLRAVQPLLKVSMSVRDSLILVLQKAIFSRQLDARKAAVAGFLLLLRNFKILGSLTSSQCSQAIGATQVQADVHACYNSAANEAFCLEILGSLRRCLSQQADVRLMLYEGFYDVLRRNSQLASSIMETLLSQIKQYYLPQQDLLPPLKLEGCIMAQGDQIFLQEPLAHLLCCIQHCLAWYKSTVHLCKGAEDEEEEEDVGFEQNFEEMLESVTRRMIKSELEDFELDKSADFSPSSGVGVKNNIYAIQVMGICEVLIEYNFKIGNFSKNKFEDVLGLFTCYNKLSEILKEKAGKNKSTLGNRIARSFLSMGFVSTLLTALFRDNAQSHEESLAVLRSSTEFMRYAVSVALQKVQQLEEMGQTDGPDGQNPEKMFQNLCKITRVLLWRYTSIPTAVEESGKKKGKSISLLCLEGLLRIFNTMQQLYAARIPQFLQALDITDGDAEEADINVTEKAAFQIRQFQRSLVNQLSSAEDDFNSKETQLLITILSTLSKLLDPGSQQFLQFLTWTVKICKENALEDLSCCKGLLTLLFSLHVLYKSPVSLLRELAQDIHACLGDIDQDVEIESRSHFAIVNVKTAAPTVCLLVLGQADKVLEEVDWLIKRLTILGSDTSEDSTQASNQTQALEKGVILQLGTLLTVFHELVQTALPAGSCVDSLLRSLSKTYAILTSLIKHYIQACRSTSNTVPGRLEKLVKLSGSHLTPQCYSFITYVQNIHSESLSFAEEKKKKKKEDETAVVSTVMAKVLRDTKPIPNLIFAIEQYEKFLIHLSKKSKVNLMQYMKLSTSRDFRINASMLDSVLQEQNTEDAENEPDNNQSGTAEQPDENQEPQKKRRRKK
notes: FANCI, Gallus gallus, full length cDNA synthesized (GeneArt); C-terminal extension with a 3C protease site before the 6x His tag; no cleavage is described; The results call the FANCI of the pull-down 'untagged', the methods 'His-tagged'; also called free FANCI; monomeric FANCI; source: Sf9, purified (HisTrap, heparin, Superdex 200); not shown: 6x His, C-terminal, kept

How the values were obtained:
[1] = molecular target: the molecule itself; test: SEC; Superdex 200 10/300, 50 mM HEPES pH 7.5, 150 mM NaCl, 1 mM TCEP; 300 µl of each protein at 1 µM; mix of 0.5 µM FANCD2 with 1 µM FANCI incubated 30 min at room temperature; fractions by SDS-PAGE
[2] = molecular target: B1; test: pull-down; StrepII-tagged FANCD2 held on StrepTactin Sepharose, FANCI added at FANCD2:FANCI molar ratios 1:0 to 1:5 and 0:5; 50 mM HEPES pH 7.5, 150 mM NaCl, 1 mM TCEP; 15 min room temperature, 30 min 4 °C on resin, two washes; bound fraction by SDS-PAGE; conditions: both partners purified

Binder | stoichiometry N [1] | stoichiometry N [2]
B1 | 2 | 
B2 |  | ~1

Reference: doi:10.1101/858225, “FANCD2-FANCI is a clamp stabilized on DNA by monoubiquitination during DNA repair” (bioRxiv, 2019)
